Residue numbers refer to the chain shown, from its start. Numbers in names are those of the source.

Holding throughout (test): cross-linking; BMOE (1 mM, 45 s) on hexamers with reporter cysteines, 0.5 µM in ATPase buffer; without or with Nse5/6 (0.625 µM), 2 mM ATP, plasmid DNA or 40 bp DNA; SDS-PAGE, Coomassie
What all share (conditions): both partners purified

The target of one assay is T1, Smc6-3C-Twin-Strep (S. cerevisiae, UniProt Q12749 1-1114).
T1 construct: Smc6, S. cerevisiae; stood in the assays as a subunit of the hexamer or octamer; also called Smc6-Twin-Strep; Smc6-3C-TS; source: E. coli (DE3) Rosetta, co-expressed with the other subunits of the hexamer, purified as part of the complex; not shown: Twin-Strep (after a 3C site), C-terminal, kept
T1 sequence (looked up): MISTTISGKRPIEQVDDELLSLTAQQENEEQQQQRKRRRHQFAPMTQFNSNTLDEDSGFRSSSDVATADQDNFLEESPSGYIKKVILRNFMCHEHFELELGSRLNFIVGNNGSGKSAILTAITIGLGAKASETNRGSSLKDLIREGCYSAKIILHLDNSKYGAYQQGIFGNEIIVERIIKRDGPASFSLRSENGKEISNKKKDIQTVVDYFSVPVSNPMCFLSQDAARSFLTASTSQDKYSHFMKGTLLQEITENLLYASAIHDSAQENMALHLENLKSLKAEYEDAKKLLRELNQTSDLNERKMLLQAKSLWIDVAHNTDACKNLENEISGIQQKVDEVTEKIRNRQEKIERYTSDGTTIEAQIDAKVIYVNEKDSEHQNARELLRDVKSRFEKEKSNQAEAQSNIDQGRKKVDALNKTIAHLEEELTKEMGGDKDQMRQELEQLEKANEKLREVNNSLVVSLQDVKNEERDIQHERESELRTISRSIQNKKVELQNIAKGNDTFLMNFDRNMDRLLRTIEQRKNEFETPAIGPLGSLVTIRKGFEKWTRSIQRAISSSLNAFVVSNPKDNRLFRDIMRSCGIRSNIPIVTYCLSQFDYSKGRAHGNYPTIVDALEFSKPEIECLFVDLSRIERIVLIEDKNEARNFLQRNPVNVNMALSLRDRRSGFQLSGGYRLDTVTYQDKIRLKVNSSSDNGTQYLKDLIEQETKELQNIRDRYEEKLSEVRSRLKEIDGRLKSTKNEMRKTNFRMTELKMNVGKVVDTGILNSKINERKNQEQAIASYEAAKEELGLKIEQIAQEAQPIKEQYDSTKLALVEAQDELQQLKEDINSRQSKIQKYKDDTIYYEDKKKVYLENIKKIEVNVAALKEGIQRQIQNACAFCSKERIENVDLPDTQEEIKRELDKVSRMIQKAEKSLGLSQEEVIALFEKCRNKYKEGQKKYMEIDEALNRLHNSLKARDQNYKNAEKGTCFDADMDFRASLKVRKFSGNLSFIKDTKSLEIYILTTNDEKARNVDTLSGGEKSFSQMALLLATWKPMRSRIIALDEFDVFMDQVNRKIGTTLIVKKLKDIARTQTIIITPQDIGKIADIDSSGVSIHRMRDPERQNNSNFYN

In another assay the target is T2, Smc6(N572C) (S. cerevisiae, UniProt Q12749 1-1114, N572C).
T2 construct: Smc6, S. cerevisiae; subunit of the Hinge-Cys (north) hexamer; also called Hinge-Cys north, Smc6; source: E. coli (DE3) Rosetta, purified as part of the hexamer
T2 sequence (looked up): T1 sequence (looked up) with N572C

A further assay addresses T3, Smc6(N643C) (S. cerevisiae, UniProt Q12749 1-1114, N643C).
T3 construct: Smc6, S. cerevisiae; subunit of the Hinge-Cys (south) hexamer; also called Hinge-Cys south, Smc6; source: E. coli (DE3) Rosetta, purified as part of the hexamer
T3 sequence (looked up): T1 sequence (looked up) with N643C

B1: Smc5(N975C) (natural protein, S. cerevisiae, UniProt Q08204 1-1093, looked up)
chain: MTSLIDLGRYVERTHHGEDTEPRSKRVKIAKPDLSSFQPGSIIKIRLQDFVTYTLTEFNLSPSLNMIIGPNGSGKSTFVCAVCLGLAGKPEYIGRSKKVEDFIKNGQDVSKIEITLKNSPNVTDIEYIDARDETIKITRIITRSKRRSDYLINDYQVSESVVKTLVAQLNIQLDNLCQFLSQERVEEFARLKSVKLLVETIRSIDASLLDVLDELRELQGNEQSLQKDLDFKKAKIVHLRQESDKLRKSVESLRDFQNKKGEIELHSQLLPYVKVKDHKEKLNIYKEEYERAKANLRAILKDKKPFANTKKTLENQVEELTEKCSLKTDEFLKAKEKINEIFEKLNTIRDEVIKKKNQNEYYRGRTKKLQATIISTKEDFLRSQEILAQTHLPEKSVFEDIDIKRKEIINKEGEIRDLISEIDAKANAINHEMRSIQRQAESKTKSLTTTDKIGILNQDQDLKEVRDAVLMVREHPEMKDKILEPPIMTVSAINAQFAAYLAQCVDYNTSKALTVVDSDSYKLFANPILDKFKVNLRELSSADTTPPVPAETVRDLGFEGYLSDFITGDKRVMKMLCQTSKIHTIPVSRRELTPAQIKKLITPRPNGKILFKRIIHGNRLVDIKQSAYGSKQVFPTDVSIKQTNFYQGSIMSNEQKIRIENEIINLKNEYNDRKSTLDALSNQKSGYRHELSELASKNDDINREAHQLNEIRKKYTMRKSTIETLREKLDQLKREARKDVSQKIKDIDDQIQQLLLKQRHLLSKMASSMKSLKNCQKELISTQILQFEAQNMDVSMNDVIGFFNEREADLKSQYEDKKKFVKEMRDTPEFQSWMREIRSYDQDTKEKLNKVAEKYEEEGNFNLSFVQDVLDKLESEIAMVNHDESAVTILDQVTAELRELEHTVPQQSKDLETIKAKLKEDHAVLEPKLDDIVSKISARFARLFNNVGSAGAVRLEKPKDYAEWKIEIMVKFRDCAPLKKLDSHTQSGGERAVSTVLYMIALQEFTSAPFRVVDEINQGMDSRNERIVHKAMVENACAENTSQYFLITPKLLTGLHYHEKMRIHCVMAGSWIPNPSEDPKMIHFGETSNYSFD
notes: Smc5, S. cerevisiae; pairs with the natural cysteines C92 and C147 of Smc6; also called E-Cys, Smc5; source: E. coli (DE3) Rosetta, purified as part of the hexamer
On to B1, for which the binding result with Smc6-3C-Twin-Strep is given as “binds”.

B2: Smc5(V638C) (natural protein, S. cerevisiae, UniProt Q08204 1-1093, looked up)
chain: B1 chain with V638C, C975N
notes: Smc5, S. cerevisiae; subunit of the Hinge-Cys (north) hexamer; also called Hinge-Cys north, Smc5; source: E. coli (DE3) Rosetta, purified as part of the hexamer
In the case of B2, the binding result with Smc6(N572C) is “binds”.

B3: Smc5(N526C) (natural protein, S. cerevisiae, UniProt Q08204 1-1093, looked up)
chain: B1 chain with N526C, C975N
notes: Smc5, S. cerevisiae; subunit of the Hinge-Cys (south) hexamer; also called Hinge-Cys south, Smc5; source: E. coli (DE3) Rosetta, purified as part of the hexamer
In the case of B3, the binding result in the assay with Smc6(N643C) is listed as “binds”.
